Patent US20150147274A1 (CANCER RESEARCH TECHNOLOGY, published 2015)
Changes are numbered by the printed parent chain.

B1: 7A2 Fab (His- and FLAG-tagged, hinged format) (Fab, V domains shown)
VH: QMQLVQSGAEVKKPGAPVKVSCKVSGYTFTDYYMHWVQQAPGKGLEWMGLVDPEDGETIYAEKFQGRVTITADTSTDTAYMELSSLRSEDTAVYYCATDATTPYYGMDVWGQGTLVTVSS
VL: DIQMTQSPSSLSASVGDRVTITCQASQDISNYLNWYQQKPGRAPKVLIYDASNLETGVPSRFSGSGSGTEFTLTISNLRPDDFATYYCQQGDSFPLTFGGGTKVEIK
notes: Fab from pBIOCAM7-3F in HEK293 cells, hinged format (Leu-Glu after VH), hexahistidine and tri-FLAG tags at the C-terminus of the heavy chain
B2: 110_A12 Fab (His/tri-FLAG tagged, hinged) (Fab, V domains shown)
VH: B1 VH with Y105W, G106F, M107P, D108R, V109E
VL: B1 VL
notes: Fab from pBIOCAM7-3F, hinged, hexahistidine and tri-FLAG tags on the heavy chain
B3: 111_D06 Fab (His/tri-FLAG tagged, hinged) (Fab, V domains shown)
VH: B1 VH with Y105W, D108W, V109Q
VL: B1 VL
notes: as for B2
B4: 110_A10 Fab (His/tri-FLAG tagged, hinged) (Fab, V domains shown)
VH: B1 VH with Y105W, D108Q, V109T
VL: B1 VL
notes: as for B2
B5: 107_A01 Fab (His/tri-FLAG tagged, hinged) (Fab, V domains shown)
VH: B1 VH with Y105W, D108V, V109S
VL: B1 VL
notes: as for B2
B6: 110_A06 Fab (His/tri-FLAG tagged, hinged) (Fab, V domains shown)
VH: B1 VH with Y105W, D108Q, V109L
VL: B1 VL
notes: as for B2
B7: 107_A01 scFv (6xHis/tri-Flag tags) (scFv)
scFv: QMQLVQSGAEVKKPGAPVKVSCKVSGYTFTDYYMHWVQQAPGKGLEWMGLVDPEDGETIYAEKFQGRVTITADTSTDTAYMELSSLRSEDTAVYYCATDATTPYWGMVSWGQGTLVTVSSLEGGGGSGGGGSGGGASDIQMTQSPSSLSASVGDRVTITCQASQDISNYLNWYQQKPGRAPKVLIYDASNLETGVPSRFSGSGSGTEFTLTISNLRPDDFATYYCQQGDSFPLTFGGGTKVEIK
notes: 7A2 derivative, only VH CDR3 changed; not shown: 6xHis/tri-FLAG tags of pSANG10-3F
B8: 110_A10 scFv (6xHis/tri-Flag tags) (scFv)
scFv: B7 scFv with V108Q, S109T
notes: as for B7
B9: 107_A08 scFv (6xHis/tri-Flag tags) (scFv)
scFv: B7 scFv with S109E
notes: as for B7
B10: 107_A07 scFv (6xHis/tri-Flag tags) (scFv)
scFv: B7 scFv with V108M, S109W
notes: as for B7
B11: 112_G01 scFv (6xHis/tri-Flag tags) (scFv)
scFv: B7 scFv with V108W, S109H
notes: not shown: 6xHis/tri-FLAG tags
B12: 110_A12 scFv (6xHis/tri-Flag tags) (scFv)
scFv: B7 scFv with G106F, M107P, V108R, S109E
notes: as for B7
B13: 111_D06 scFv (6xHis/tri-Flag tags) (scFv)
scFv: B7 scFv with V108W, S109Q
notes: as for B7
B14: 110_A01 scFv (6xHis/tri-Flag tags) (scFv)
scFv: B7 scFv with G106F, M107P, V108Y, S109L
notes: 7A2 derivative, only VH CDR3 changed; also called 110_A1; not shown: 6xHis/tri-FLAG tags of pSANG10-3F
B15: 110_A06 scFv (6xHis/tri-Flag tags) (scFv)
scFv: B7 scFv with V108Q, S109L
notes: 7A2 derivative, only VH CDR3 changed; also called 110_A6; not shown: 6xHis/tri-FLAG tags of pSANG10-3F
B16: 112_G11 (scFv)
scFv: B7 scFv with G106F, M107P, V108Y, S109T
notes: as for B11
B17: 112_H7 (scFv)
scFv: B7 scFv with M107V, V108Q
notes: as for B11
B18: 112_H4 (scFv)
scFv: B7 scFv with V108W, S109K
notes: as for B11
B19: 111_E6 (scFv)
scFv: B7 scFv with V108A, S109V
notes: as for B11
B20: 112_H5 (scFv)
scFv: B7 scFv with V108Q, S109A
notes: as for B11
B21: 111_E5 (scFv)
scFv: B7 scFv with V108C, S109E
notes: as for B11
B22: 112_H9 (scFv)
scFv: B7 scFv with G106F, M107P, V108Y
notes: as for B11
B23: 111_E12 (scFv)
scFv: B7 scFv with G106S, M107P, V108W, S109V
notes: as for B11
B24: 112_H12 (scFv)
scFv: B7 scFv with G106F, M107P, V108Y, S109K
notes: as for B11
B25: 112_F12 (scFv)
scFv: B7 scFv with V108Q, S109W
notes: as for B11
B26: 111_E8 (scFv)
scFv: B7 scFv with G106F, M107P, V108Y, S109R
notes: as for B11
B27: 112_F8 (scFv)
scFv: B7 scFv with G106T, M107P, V108F, S109L
notes: as for B11
B28: 112_H11 (scFv)
scFv: B7 scFv with G106F, M107P, V108Q, S109V
notes: as for B11
B29: 112_H8 (scFv)
scFv: B7 scFv with G106L, M107P, V108L, S109Y
notes: as for B11
B30: 111_E4 (scFv)
scFv: B7 scFv with M107I, V108E, S109V
notes: as for B11
B31: 112_H6 (scFv)
scFv: B7 scFv with V108M, S109E
notes: as for B11
B32: 112_H1 (scFv)
scFv: B7 scFv with M107A, V108A, S109V
notes: as for B11
B33: 111_E7 (scFv)
scFv: B7 scFv with V108M, S109M
notes: as for B11
B34: 112_F4 (scFv)
scFv: B7 scFv with V108A, S109D
notes: as for B11
B35: 112_G4 (scFv)
scFv: B7 scFv with M107A, V108Q
notes: as for B11
B36: 112_F1 (scFv)
scFv: B7 scFv with V108A, S109R
notes: as for B11
B37: 112_F11 (scFv)
scFv: B7 scFv with V108M, S109Q
notes: as for B11
B38: 112_G7 (scFv)
scFv: B7 scFv with G106F, M107P, V108Q, S109T
notes: as for B11
B39: 112_G6 (scFv)
scFv: B7 scFv with G106F, M107P, V108F, S109V
notes: as for B11
B40: 111_E11 (scFv)
scFv: B7 scFv with V108R, S109E
notes: as for B11
B41: 112_H10 (scFv)
scFv: B7 scFv with M107I, V108R, S109K
notes: as for B11
B42: 112_G5 (scFv)
scFv: B7 scFv with V108R
notes: as for B11
B43: 112_G3 (scFv)
scFv: B7 scFv with V108S, S109A
notes: as for B11
B44: 112_G9 (scFv)
scFv: B7 scFv with V108Q, S109R
notes: as for B11
B45: 111_E10 (scFv)
scFv: B7 scFv with G106Y, M107P, V108Y, S109A
notes: as for B11

target: T1, MET928 (cMET protein derived from construct 25-928) (human, UniProt P08581 25-928); assay: Biacore SPR, MET-928 on chip, Fab format
T1 construct: MET ectodomain, residues 1-24 are the leader; produced in Lec 8 cells; background text says the ectodomain is furin-cleaved into alpha (25-307) and beta chains; biotinylated form used in selections; also called MET928 extracellular domain; Met extracellular domain
T1 sequence (P08581 25-928): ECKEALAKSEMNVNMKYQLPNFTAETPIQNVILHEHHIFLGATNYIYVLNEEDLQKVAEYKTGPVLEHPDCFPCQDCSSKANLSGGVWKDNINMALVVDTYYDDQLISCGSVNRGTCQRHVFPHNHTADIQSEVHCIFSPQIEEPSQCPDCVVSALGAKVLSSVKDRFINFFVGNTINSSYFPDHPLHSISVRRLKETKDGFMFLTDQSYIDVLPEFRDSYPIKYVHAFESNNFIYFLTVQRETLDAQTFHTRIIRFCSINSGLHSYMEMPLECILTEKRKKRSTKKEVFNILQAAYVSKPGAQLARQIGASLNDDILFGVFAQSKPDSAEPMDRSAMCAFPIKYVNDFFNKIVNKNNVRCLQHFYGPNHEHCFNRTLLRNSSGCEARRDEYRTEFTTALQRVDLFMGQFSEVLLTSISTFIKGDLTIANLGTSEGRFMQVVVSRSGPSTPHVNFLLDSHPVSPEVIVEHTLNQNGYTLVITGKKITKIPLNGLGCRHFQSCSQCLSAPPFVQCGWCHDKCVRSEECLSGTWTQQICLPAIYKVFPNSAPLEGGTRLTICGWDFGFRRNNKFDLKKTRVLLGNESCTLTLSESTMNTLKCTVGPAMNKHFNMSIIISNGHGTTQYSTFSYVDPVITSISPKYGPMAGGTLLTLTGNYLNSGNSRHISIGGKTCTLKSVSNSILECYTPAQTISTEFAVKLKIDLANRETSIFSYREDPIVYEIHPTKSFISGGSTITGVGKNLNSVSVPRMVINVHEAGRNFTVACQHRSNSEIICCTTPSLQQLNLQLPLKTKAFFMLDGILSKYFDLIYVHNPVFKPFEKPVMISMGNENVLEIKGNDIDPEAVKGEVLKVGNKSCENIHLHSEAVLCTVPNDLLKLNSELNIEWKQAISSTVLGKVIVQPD
Procedure: (§1) The binding characteristics of 7A2 and its derivatives were measured using a GE Healthcare Biacore biosensor.

Kd [nM]	koff [s⁻¹]	kon [M⁻¹ s⁻¹]	Binder
77.3	0.0882	1.14e+06	B1
2.79	0.00161	577000	B2
2.29	0.00197	860000	B3
2.23	0.00168	756000	B4
1.43	0.00123	863000	B5
1.9	0.00128	677000	B6

target: T1, MET928 (cMET protein derived from …); assay: Biacore SPR, MET-928 on chip, scFv format
Procedure: as §1

Kd [nM]	koff [s⁻¹]	kon [M⁻¹ s⁻¹]	Binder
0.0652	0.00321	4.92e+07	B7
0.301	0.00273	9.08e+06	B8
0.274	0.00691	2.52e+07	B9
0.346	0.00115	3.31e+06	B10
0.786	0.00238	3.03e+06	B11
0.958	0.00156	1.63e+06	B12
0.183	0.00549	3.01e+07	B13
0.322	0.00163	5.05e+06	B14
0.121	0.00417	3.45e+07	B15

target: T1, MET928 (cMET protein derived from …); assay: ELISA, soluble scFv

binding result	Binder
binds	B16
binds	B17
binds	B18
binds	B19
binds	B20
binds	B21
binds	B22
binds	B23
binds	B24
binds	B25
binds	B26
binds	B27
binds	B28
binds	B29
binds	B30
binds	B31
binds	B32
binds	B33
binds	B34
binds	B35
binds	B36
binds	B37
binds	B38
binds	B39
binds	B40
binds	B41
binds	B42
binds	B43
binds	B44
binds	B45

target: human MET (c-Met) on cells (SKOV-3, BxPC3) (human, UniProt P08581 25-1390); assay: cell-based or functional assay
Sequence (P08581 25-1390): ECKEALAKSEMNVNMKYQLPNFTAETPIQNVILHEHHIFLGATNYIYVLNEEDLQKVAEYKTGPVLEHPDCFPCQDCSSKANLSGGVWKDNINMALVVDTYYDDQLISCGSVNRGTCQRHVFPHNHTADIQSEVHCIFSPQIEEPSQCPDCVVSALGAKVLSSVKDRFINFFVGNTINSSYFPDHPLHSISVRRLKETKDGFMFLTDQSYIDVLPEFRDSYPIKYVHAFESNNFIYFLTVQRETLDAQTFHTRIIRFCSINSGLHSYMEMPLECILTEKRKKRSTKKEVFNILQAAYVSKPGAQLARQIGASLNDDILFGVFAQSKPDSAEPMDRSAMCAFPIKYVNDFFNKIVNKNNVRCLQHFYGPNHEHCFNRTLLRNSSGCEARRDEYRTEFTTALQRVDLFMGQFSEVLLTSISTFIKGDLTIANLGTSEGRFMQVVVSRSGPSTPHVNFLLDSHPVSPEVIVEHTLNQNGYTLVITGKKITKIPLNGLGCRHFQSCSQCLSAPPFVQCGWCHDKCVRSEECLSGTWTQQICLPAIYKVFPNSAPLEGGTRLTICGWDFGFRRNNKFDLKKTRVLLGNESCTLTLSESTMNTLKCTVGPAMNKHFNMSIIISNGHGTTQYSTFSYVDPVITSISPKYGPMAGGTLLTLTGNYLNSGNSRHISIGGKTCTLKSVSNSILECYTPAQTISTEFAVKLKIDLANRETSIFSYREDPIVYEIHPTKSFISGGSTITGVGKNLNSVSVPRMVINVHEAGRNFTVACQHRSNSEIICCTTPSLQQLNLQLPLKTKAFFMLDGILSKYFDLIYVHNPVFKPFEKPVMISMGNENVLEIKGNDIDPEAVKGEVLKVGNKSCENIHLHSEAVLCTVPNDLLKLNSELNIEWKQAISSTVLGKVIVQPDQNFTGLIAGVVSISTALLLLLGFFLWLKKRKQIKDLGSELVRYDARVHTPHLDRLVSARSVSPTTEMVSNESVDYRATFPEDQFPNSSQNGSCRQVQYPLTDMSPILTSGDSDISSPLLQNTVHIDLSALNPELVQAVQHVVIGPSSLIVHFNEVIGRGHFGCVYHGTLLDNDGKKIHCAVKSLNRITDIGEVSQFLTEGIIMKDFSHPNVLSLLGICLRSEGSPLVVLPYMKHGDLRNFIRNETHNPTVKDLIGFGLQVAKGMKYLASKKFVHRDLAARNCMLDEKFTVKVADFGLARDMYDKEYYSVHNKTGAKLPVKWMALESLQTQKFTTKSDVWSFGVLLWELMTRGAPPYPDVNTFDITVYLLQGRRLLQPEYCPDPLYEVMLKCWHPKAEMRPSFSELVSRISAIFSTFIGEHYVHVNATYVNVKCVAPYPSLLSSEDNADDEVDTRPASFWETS

IC50, inhibition of HGF/SF-induced migration of SKOV-3 cells, Assay 1 [nM]	IC50, inhibition of HGF/SF-induced migration of SKOV-3 cells, Assay 2 [nM]	IC50, inhibition of HGF/SF-induced migration of SKOV-3 cells, Assay 3 [nM]	Mean IC50, inhibition of HGF/SF-induced migration of SKOV-3 cells [nM]	Binder
387	493	278	386	B1
9.7		11.4	10.6	B5
